Measurements as given in IntAct's records for PubMed 25961797.

Tests used:
cbp_mouse Crebbp = cbp_mouse Crebbp (UniProt P45481)
cry1_mouse Cry1 = cry1_mouse Cry1 (UniProt P97784)
Sequence of cry1_mouse Cry1 (P97784 whole entry): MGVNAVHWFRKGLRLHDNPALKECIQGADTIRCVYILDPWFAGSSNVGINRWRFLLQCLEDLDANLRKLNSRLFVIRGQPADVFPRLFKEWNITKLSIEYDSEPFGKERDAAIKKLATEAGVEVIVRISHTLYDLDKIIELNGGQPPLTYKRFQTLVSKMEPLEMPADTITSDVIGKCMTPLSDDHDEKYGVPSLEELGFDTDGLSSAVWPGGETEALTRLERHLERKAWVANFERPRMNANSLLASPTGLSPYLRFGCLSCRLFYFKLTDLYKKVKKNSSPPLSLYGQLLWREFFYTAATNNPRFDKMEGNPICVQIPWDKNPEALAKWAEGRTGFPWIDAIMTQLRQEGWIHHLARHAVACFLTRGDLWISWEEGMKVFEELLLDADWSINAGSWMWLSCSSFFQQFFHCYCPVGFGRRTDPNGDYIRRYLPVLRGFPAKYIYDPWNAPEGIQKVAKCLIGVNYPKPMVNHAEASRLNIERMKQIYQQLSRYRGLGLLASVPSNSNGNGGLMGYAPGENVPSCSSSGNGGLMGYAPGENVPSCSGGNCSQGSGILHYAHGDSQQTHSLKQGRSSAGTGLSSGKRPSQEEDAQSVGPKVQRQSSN

Sequence of Basic helix-loop-helix ARNT-like protein 1 (Mus musculus), Q9WTL8-4 L606A;L607A (Q9WTL8 other isoform, or with tags, fused parts or gaps L606A;L607A): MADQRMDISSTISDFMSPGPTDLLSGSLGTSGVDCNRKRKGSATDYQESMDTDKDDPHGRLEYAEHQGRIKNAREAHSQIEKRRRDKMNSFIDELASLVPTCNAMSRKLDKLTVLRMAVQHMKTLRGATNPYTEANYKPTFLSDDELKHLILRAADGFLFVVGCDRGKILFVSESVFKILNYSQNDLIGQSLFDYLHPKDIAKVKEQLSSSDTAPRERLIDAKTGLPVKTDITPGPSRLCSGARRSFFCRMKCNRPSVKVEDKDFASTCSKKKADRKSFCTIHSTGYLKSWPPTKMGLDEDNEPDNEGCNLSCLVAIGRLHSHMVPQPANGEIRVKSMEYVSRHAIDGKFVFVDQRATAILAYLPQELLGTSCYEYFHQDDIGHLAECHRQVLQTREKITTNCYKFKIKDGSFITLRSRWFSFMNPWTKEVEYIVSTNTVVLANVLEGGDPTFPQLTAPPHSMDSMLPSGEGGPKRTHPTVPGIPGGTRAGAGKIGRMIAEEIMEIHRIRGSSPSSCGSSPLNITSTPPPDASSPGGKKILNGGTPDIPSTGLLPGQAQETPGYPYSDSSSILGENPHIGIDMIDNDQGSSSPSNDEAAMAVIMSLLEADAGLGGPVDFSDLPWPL
Sequence of Basic helix-loop-helix ARNT-like protein 1 (Mus musculus), Q9WTL8-4 V602A;I603F (Q9WTL8 other isoform, or with tags, fused parts or gaps V602A;I603F): as the sequence (Q9WTL8 other isoform, or with tags, fused parts or gaps L606A;L607A) above
Sequence of cbp_mouse Crebbp (P45481 whole entry): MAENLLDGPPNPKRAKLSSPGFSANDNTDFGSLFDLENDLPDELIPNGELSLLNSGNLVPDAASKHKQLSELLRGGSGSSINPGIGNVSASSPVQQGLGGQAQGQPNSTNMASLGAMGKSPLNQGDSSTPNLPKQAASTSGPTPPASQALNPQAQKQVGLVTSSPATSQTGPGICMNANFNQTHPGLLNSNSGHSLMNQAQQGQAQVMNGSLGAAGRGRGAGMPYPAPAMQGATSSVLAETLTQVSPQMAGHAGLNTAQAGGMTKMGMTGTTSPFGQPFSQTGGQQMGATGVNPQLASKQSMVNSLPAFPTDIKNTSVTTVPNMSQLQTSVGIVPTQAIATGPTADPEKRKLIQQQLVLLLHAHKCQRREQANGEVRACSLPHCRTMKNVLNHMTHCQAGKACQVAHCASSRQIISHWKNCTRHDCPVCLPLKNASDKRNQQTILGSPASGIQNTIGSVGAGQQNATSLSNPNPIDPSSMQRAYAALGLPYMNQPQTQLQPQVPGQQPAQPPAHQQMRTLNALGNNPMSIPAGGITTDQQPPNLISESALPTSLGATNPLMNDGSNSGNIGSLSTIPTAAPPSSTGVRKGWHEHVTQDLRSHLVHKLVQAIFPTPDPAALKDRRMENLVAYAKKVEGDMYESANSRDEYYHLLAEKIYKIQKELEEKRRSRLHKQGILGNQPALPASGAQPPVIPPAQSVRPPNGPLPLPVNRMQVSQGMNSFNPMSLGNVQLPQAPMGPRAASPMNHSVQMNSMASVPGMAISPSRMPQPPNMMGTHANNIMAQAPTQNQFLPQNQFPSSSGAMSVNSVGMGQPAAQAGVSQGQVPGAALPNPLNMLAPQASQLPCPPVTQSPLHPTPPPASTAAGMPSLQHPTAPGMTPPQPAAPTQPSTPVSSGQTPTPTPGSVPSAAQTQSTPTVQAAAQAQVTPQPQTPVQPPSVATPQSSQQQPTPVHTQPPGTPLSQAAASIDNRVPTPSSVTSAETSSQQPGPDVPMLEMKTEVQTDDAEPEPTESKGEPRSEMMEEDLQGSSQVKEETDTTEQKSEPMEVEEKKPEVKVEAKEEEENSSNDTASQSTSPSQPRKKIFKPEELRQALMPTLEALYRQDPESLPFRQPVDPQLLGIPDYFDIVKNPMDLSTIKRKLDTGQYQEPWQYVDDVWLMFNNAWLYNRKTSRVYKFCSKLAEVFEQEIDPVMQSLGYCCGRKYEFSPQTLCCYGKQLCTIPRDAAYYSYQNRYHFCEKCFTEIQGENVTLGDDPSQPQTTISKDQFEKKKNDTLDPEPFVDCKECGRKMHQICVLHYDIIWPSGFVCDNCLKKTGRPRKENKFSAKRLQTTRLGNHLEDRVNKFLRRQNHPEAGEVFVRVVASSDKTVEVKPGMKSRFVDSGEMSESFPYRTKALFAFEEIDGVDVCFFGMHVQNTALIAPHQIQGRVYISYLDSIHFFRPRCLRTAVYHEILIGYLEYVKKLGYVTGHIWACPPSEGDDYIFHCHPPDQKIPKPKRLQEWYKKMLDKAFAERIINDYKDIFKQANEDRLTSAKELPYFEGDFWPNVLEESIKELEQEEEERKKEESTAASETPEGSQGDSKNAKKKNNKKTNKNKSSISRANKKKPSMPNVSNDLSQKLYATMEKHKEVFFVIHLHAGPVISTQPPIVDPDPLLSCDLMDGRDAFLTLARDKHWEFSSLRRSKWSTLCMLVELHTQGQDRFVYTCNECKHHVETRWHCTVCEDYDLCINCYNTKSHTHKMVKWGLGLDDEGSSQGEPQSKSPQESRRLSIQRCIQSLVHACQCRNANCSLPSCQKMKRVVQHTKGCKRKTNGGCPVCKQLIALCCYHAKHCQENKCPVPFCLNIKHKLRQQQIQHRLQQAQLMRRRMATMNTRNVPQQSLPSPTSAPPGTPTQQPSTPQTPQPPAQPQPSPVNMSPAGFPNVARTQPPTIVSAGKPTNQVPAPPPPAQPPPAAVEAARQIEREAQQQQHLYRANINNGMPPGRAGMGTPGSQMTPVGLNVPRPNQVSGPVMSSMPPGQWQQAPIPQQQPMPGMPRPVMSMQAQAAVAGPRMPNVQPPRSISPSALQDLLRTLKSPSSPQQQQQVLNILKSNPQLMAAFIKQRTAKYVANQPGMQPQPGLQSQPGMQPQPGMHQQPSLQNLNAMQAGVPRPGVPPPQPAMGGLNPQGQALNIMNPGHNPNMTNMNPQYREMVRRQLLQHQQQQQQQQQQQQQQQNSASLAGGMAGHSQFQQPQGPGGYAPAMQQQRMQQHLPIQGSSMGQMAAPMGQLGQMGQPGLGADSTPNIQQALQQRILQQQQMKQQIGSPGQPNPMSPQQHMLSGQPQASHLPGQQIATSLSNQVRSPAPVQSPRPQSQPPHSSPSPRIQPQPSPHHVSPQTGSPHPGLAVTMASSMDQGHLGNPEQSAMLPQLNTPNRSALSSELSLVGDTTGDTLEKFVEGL

| effect of a mutation on the interaction (cbp_mouse Crebbp) | effect of a mutation on the interaction (cry1_mouse Cry1) | Substance |
| --- | --- | --- |
| disrupting interaction strength | disrupting interaction strength | Basic helix-loop-helix ARNT-like protein 1 (Mus musculus), Q9WTL8-4 L606A;L607A |
| – | disrupting interaction strength | Basic helix-loop-helix ARNT-like protein 1 (Mus musculus), Q9WTL8-4 V602A;I603F |
